T1: C-terminally 3×FLAG-1×HA-tagged mouse MINION (Mus musculus) (UniProt Q2Q5T5)
T1 sequence: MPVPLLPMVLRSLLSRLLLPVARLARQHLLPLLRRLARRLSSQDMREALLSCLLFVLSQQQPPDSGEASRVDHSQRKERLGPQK

B1: Synaptopodin 2-like protein (protein, UniProt Q8BWB1 1-975, looked up)
Synaptopodin 2-like protein: MGAEEEVQVTLAGGAPWGFRLQGGTEQRKPLQIRRRSQAGRAGLRERDQLLAINGVSCTNFSHASAMTLIDASGRQLVLTVRRVTDEGSVRSPSPGELQVLSPLSPLSPEPPGAPVSQALQPTSLRSPPDSEAYYGETDSDVDGPATQEKPRRTRRRGPARPSLPGAPPDEVYLSDSPAEPAPVKTGSPSQGDSRVSSPSWEEGAALQPPPAEALLLPHGPLRPGPHLIPMVGPVPHPVAEDLTTTYTQKAKQAKLQRAESLQEKSVKEARTKCRTIASLLTAAPNPHSKGVLMFKKRRQRAKKYTLVSFGAAAGTGTEEEDGIPPTSESELDEETFSDARSLTNQSDWDSPYLDMELARAGLGTAESQNSGLGGQLSEVSGRGVQLFEQQRQRVASSSQELAQVGPAAMLNGQSLQSPPRAQSAPPEAAVLPLSPLSVPAVSPTPFFPDGGAPIPAPSIFNRSARPFTPGLQGQRSGTTSVIFRPLAPKKVNEGLGSTSPAPSPFAAPPQGPTPLPSFTTVVPSHTPVSGASSSTQRSSGPVTATSSLYIPAPSRPVTPGGAPEPPTPPSAAAMTSTASIFLSTPLRNSARPEAPGPAVPEPASVREQRISVPAARTGILQEARRRGTRKQMFRPGKEETKNSPNPELLSLVQNLDEKPRAGGAESGPEEDALSLGAEACNFMQPLGGRSYKTLPQVSPKTPPPMAPKTPPPTTPKTPPPVAPKPGSRGLLDGLVNGSTPMVGIPEPPRLQGRGGELFAKRQSRADRYVVEATSGSSLNPGLRPRSPSPTPSLPPSWKYSPNIRAPPPIAYNPLLSPFFPQAARTLPNKAQSQGPRVTPKQGIKALDFMRHQPYQLKTAMFCFDEGSSTPGPTSGPPKTARVQEIRRFSTPAPQPTAEPLAPTVLVPRAATTLDEPIWRAELASTPVPNPDHQESLRSFAAAPSSCGFQVARPRFSATRTGLQAHVWRPGAGHQ
B2: C-terminally 3×FLAG-1×HA-tagged mouse MINION (other)
chain: MPVPLLPMVLRSLLSRLLLPVARLARQHLLPLLRRLARRLSSQDMREALLSCLLFVLSQQQPPDSGEASRVDHSQRKERLGPQK
notes: Construct of the mouse MINION CDS (84 aa isoform) expressed from the pCIGAR retroviral vector; The AP-MS text only says 'FLAG-tagged Minion'; also called FLAG-tagged Minion; 3F1H-tagged mouse MINION; not shown: C-terminal 3×FLAG-1×HA tag

Molecular target: T1, C-terminally 3×FLAG-1×HA-tagged mouse MINION (Mus musculus)
Test: AP-MS, FLAG-tagged Minion bait, differentiating C2C12 myoblasts

Compared with “ATP synthase subunit beta, mitochondrial (from UniProt P56480 47-529) (enzyme)”, “ATPase family AAA domain-containing protein 1 (from UniProt Q9D5T0 1-361) (enzyme)” is lower in Sequence Coverage (%): 77% for the first, 30% for the second.

First: Acetolactate synthase-like protein (from UniProt Q8BU33 1-632) (enzyme)
Second: Adenylate kinase isoenzyme 4, mitochondrial (from UniProt Q9WUR9 1-223)
The Sequence Coverage (%) of the first is lower: 32% for the first, 52% for the second.

Compared with “Aldehyde dehydrogenase family 3 member B1 (from UniProt Q80VQ0 1-465) (enzyme)”, “Apolipoprotein O-like (from UniProt Q78IK4 28-265)” is higher in Sequence Coverage (%): 46% for the first, 49% for the second.

First: B-cell receptor-associated protein 31 (from UniProt Q61335 2-245)
Second: Calcium uniporter protein, mitochondrial (from UniProt Q3UMR5 50-350)
The Sequence Coverage (%) of the first is lower: 27% for the first, 38% for the second.

Compared with “Calsequestrin-2 (from UniProt O09161 20-415)”, “Cluster of Guanine nucleotide-binding protein G(s) subunit alpha isoforms short” is higher in Sequence Coverage (%): 24% for the first, 34% for the second.

Compared with “Cluster of Myc box-dependent-interacting protein 1 (from UniProt O08539 2-588)”, “Coproporphyrinogen-III oxidase, mitochondrial (from UniProt P36552 99-443) (enzyme)” is higher in Sequence Coverage (%): 42% for the first, 52% for the second.

Going from “Cytochrome b-c1 complex subunit 1, mitochondrial (from UniProt Q9CZ13 35-480)” to “Cytoplasmic dynein 1 heavy chain 1 (from UniProt Q9JHU4 2-4644)”, the Sequence Coverage (%) rises from 41% to 46%.

First: Cytoskeleton-associated protein 5 (from UniProt A2AGT5 1-2032)
Second: DnaJ homolog subfamily C member 16 (from UniProt Q80TN4 26-772)
The Sequence Coverage (%) of the first is lower: 8% for the first, 19% for the second.

Going from Dysferlin (from UniProt Q9ESD7 1-2090) to “Eukaryotic initiation factor 4A-II (from UniProt P10630 1-407)”, the Sequence Coverage (%) rises from 13% to 53%.

First: Inositol 1,4,5-trisphosphate receptor type 3 (from UniProt P70227 1-2670)
Second: Isovaleryl-CoA dehydrogenase, mitochondrial (from UniProt Q9JHI5 31-424) (enzyme)
The Sequence Coverage (%) of the first is lower: 6% for the first, 49% for the second.

Going from “Junctional sarcoplasmic reticulum protein 1 (from UniProt Q3MI48 1-332)” to “NADH dehydrogenase [ubiquinone] 1 alpha subcomplex subunit 10, mitochondrial (from UniProt Q99LC3 36-355) (enzyme)”, the Sequence Coverage (%) falls from 53% to 24%.

Going from “NADH dehydrogenase [ubiquinone] flavoprotein 1, mitochondrial (from UniProt Q91YT0 21-464) (enzyme)” to “NADH-ubiquinone oxidoreductase 75 kDa subunit, mitochondrial (from UniProt Q91VD9 24-727) (enzyme)”, the Sequence Coverage (%) falls from 24% to 20%.

First: Nascent polypeptide-associated complex subunit alpha, muscle-specific form (from UniProt P70670 1-2187)
Second: Signal recognition particle 68 kDa protein (from UniProt Q8BMA6 1-625)
The Sequence Coverage (%) of the first is lower: 18% for the first, 25% for the second.

Compared with “Sorbin and SH3 domain-containing protein 2 (from UniProt Q3UTJ2 1-1180)”, Syntaxin-8 (from UniProt O88983 1-236) is higher in Sequence Coverage (%): 7% for the first, 19% for the second.

Compared with T-complex protein 1 subunit alpha, “T-complex protein 1 subunit beta (from UniProt P80314 2-535)” is higher in Sequence Coverage (%): 52% for the first, 55% for the second.

Compared with “T-complex protein 1 subunit theta (from UniProt P42932 2-548)”, “Trifunctional enzyme subunit alpha, mitochondrial (from UniProt Q8BMS1 37-763)” is higher in Sequence Coverage (%): 48% for the first, 66% for the second.

Going from “Trifunctional enzyme subunit beta, mitochondrial (from UniProt Q99JY0 35-475)” to “Tripartite motif-containing protein 72 (from UniProt Q1XH17 1-477)”, the Sequence Coverage (%) falls from 68% to 55%.

First: Vacuolar protein sorting-associated protein 45 (from UniProt P97390 1-570)
Second: Very long-chain specific acyl-CoA dehydrogenase, mitochondrial (from UniProt P50544 42-656) (enzyme)
The Sequence Coverage (%) of the first is lower: 15% for the first, 57% for the second.

First: Voltage-dependent anion-selective channel protein 1 (from UniProt Q60932 1-296)
Second: B1
The Sequence Coverage (%) of the first is higher: 15% for the first, 8% for the second.

Compared with “ATP synthase subunit beta, mitochondrial (from UniProt P56480 47-529) (enzyme)”, “ATPase family AAA domain-containing protein 1 (from UniProt Q9D5T0 1-361) (enzyme)” is lower in Unique Peptide: 26 for the first, 7 for the second.

Compared with “Acetolactate synthase-like protein (from UniProt Q8BU33 1-632) (enzyme)”, “Adenylate kinase isoenzyme 4, mitochondrial (from UniProt Q9WUR9 1-223)” is lower in Unique Peptide: 10 for the first, 6 for the second.

Compared with “Aldehyde dehydrogenase family 3 member B1 (from UniProt Q80VQ0 1-465) (enzyme)”, “Apolipoprotein O-like (from UniProt Q78IK4 28-265)” is lower in Unique Peptide: 15 for the first, 9 for the second.

First: B-cell receptor-associated protein 31 (from UniProt Q61335 2-245)
Second: Calcium uniporter protein, mitochondrial (from UniProt Q3UMR5 50-350)
The Unique Peptide of the first is lower: 7 for the first, 12 for the second.

“Calsequestrin-2 (from UniProt O09161 20-415)” and “Cluster of Guanine nucleotide-binding protein G(s) subunit alpha isoforms short” are the same in Unique Peptide: 9 for the first, 9 for the second.

Compared with “Cluster of Myc box-dependent-interacting protein 1 (from UniProt O08539 2-588)”, “Coproporphyrinogen-III oxidase, mitochondrial (from UniProt P36552 99-443) (enzyme)” is higher in Unique Peptide: 16 for the first, 19 for the second.

Going from “Cytochrome b-c1 complex subunit 1, mitochondrial (from UniProt Q9CZ13 35-480)” to “Cytoplasmic dynein 1 heavy chain 1 (from UniProt Q9JHU4 2-4644)”, the Unique Peptide rises from 13 to 157.

Compared with “Cytoskeleton-associated protein 5 (from UniProt A2AGT5 1-2032)”, “DnaJ homolog subfamily C member 16 (from UniProt Q80TN4 26-772)” is lower in Unique Peptide: 13 for the first, 9 for the second.

Compared with Dysferlin (from UniProt Q9ESD7 1-2090), “Eukaryotic initiation factor 4A-II (from UniProt P10630 1-407)” is lower in Unique Peptide: 17 for the first, 9 for the second.

First: Inositol 1,4,5-trisphosphate receptor type 3 (from UniProt P70227 1-2670)
Second: Isovaleryl-CoA dehydrogenase, mitochondrial (from UniProt Q9JHI5 31-424) (enzyme)
The Unique Peptide of the first is lower: 11 for the first, 16 for the second.

Compared with “Junctional sarcoplasmic reticulum protein 1 (from UniProt Q3MI48 1-332)”, “NADH dehydrogenase [ubiquinone] 1 alpha subcomplex subunit 10, mitochondrial (from UniProt Q99LC3 36-355) (enzyme)” is lower in Unique Peptide: 8 for the first, 7 for the second.

Compared with “NADH dehydrogenase [ubiquinone] flavoprotein 1, mitochondrial (from UniProt Q91YT0 21-464) (enzyme)”, “NADH-ubiquinone oxidoreductase 75 kDa subunit, mitochondrial (from UniProt Q91VD9 24-727) (enzyme)” is higher in Unique Peptide: 7 for the first, 9 for the second.

First: Nascent polypeptide-associated complex subunit alpha, muscle-specific form (from UniProt P70670 1-2187)
Second: Signal recognition particle 68 kDa protein (from UniProt Q8BMA6 1-625)
The Unique Peptide of the first is higher: 23 for the first, 11 for the second.

Compared with “Sorbin and SH3 domain-containing protein 2 (from UniProt Q3UTJ2 1-1180)”, Syntaxin-8 (from UniProt O88983 1-236) is lower in Unique Peptide: 6 for the first, 4 for the second.

T-complex protein 1 subunit alpha and “T-complex protein 1 subunit beta (from UniProt P80314 2-535)” are the same in Unique Peptide: 20 for the first, 20 for the second.

Going from “T-complex protein 1 subunit theta (from UniProt P42932 2-548)” to “Trifunctional enzyme subunit alpha, mitochondrial (from UniProt Q8BMS1 37-763)”, the Unique Peptide rises from 22 to 33.

Going from “Trifunctional enzyme subunit beta, mitochondrial (from UniProt Q99JY0 35-475)” to “Tripartite motif-containing protein 72 (from UniProt Q1XH17 1-477)”, the Unique Peptide falls from 22 to 16.

Going from “Vacuolar protein sorting-associated protein 45 (from UniProt P97390 1-570)” to “Very long-chain specific acyl-CoA dehydrogenase, mitochondrial (from UniProt P50544 42-656) (enzyme)”, the Unique Peptide rises from 7 to 26.

Going from “Voltage-dependent anion-selective channel protein 1 (from UniProt Q60932 1-296)” to B1, the Unique Peptide falls from 10 to 5.

Molecular target: T2, Gapdh (mouse, UniProt P16858 1-333)
T2 construct: also called glyceraldehyde-3-phosphate dehydrogenase
Test: Western blot of the FLAG-tagged Minion affinity purification

T2 sequence (P16858 whole entry): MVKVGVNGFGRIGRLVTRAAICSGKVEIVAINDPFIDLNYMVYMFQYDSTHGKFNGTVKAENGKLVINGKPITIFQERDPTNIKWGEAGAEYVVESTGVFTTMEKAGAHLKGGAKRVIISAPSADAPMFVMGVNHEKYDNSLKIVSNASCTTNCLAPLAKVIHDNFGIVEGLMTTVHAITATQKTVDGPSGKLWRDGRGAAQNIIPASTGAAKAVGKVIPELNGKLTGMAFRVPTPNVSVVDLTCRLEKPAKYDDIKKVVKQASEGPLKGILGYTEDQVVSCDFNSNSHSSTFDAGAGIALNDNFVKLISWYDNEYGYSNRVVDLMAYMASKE

B2: no binding.

Reference: patent US20190263899A1 (Novartis, published 2019)
